Key:
human DR4HsECD-FcHisCtag = target: T1, human DR4HsECD-FcHisCtag (human); test: BLI, antigen captured on anti-Penta-HIS sensors
T1 construct: also called recombinant human DR4
Method: The binding affinity of BisG1-FAPα-FERL/DR4-FERR, BisG1-b12-FERL/DR4-FERR and control BisG1-FAPα-FERL/b12-FERR to recombinant human and cynomolgus monkey DR4 protein was determined using label-free biolayer interferometry on an Octet HTX instrument (Sartorius).
The protocol detailed in Example 5 was used with the following differences: anti-Penta-HIS biosensors (Sartorius, Cat #18-5120) were used; the sensors were preconditioned by exposure to 10 mM glycine (Sigma-Aldrich, Cat #15527) buffer pH 1.5 for 5 s, followed by neutralization in Sample Diluent (Sartorius, Cat #18-1104) for 5 s; both steps were repeated 2 times; the sensors were loaded with 50 nM human DR4HsECD-FcHisCtag (SEQ ID NO: 66), or cynomolgus DR4MfECD-FcHisCtag (SEQ ID NO: 67), for 600 s; the dissociation time was 1,000 s; The window of interest for the dissociation time was set at 100 s for the cynomolgus antigen and at 1,000 s for the human antigen.

[1] = target: T2, His-tagged recombinant human FAPα (R&D Systems, Cat #3715-SE) (human, UniProt Q12884 26-760); test: BLI sandwich cross-block assay
T2 construct: not shown: His tag
T2 sequence (looked up): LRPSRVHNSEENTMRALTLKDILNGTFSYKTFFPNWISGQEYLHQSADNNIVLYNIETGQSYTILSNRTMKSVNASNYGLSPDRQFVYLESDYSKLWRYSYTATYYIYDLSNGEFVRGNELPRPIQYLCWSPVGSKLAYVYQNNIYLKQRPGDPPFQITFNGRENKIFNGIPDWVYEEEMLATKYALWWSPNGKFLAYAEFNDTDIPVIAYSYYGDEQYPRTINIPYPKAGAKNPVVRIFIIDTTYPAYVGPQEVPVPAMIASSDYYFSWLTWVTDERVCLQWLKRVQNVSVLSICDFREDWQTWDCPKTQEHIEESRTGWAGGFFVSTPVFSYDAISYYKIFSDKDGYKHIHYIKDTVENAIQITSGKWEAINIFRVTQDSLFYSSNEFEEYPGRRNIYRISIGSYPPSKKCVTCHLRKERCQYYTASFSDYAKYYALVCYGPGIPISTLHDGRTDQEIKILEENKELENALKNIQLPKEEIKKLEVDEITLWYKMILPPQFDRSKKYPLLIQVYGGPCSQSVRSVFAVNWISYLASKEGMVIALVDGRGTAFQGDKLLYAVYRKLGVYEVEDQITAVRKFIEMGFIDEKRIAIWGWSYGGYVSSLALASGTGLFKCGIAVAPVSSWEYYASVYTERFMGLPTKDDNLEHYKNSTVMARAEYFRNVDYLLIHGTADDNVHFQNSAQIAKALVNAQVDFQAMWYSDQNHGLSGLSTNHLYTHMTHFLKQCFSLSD
Method: Sandwich cross-block experiments were carried out while shaking at 1,000 RPM at 30° C. […] The activated AR2G sensors were loaded with 10 μg/mL of the first antibody in 10 mM Sodium Acetate pH 6.0 (ForteBio, cat. no. 18-1070) for 600 s and quenched with 1 M ethanolamine pH 8.5 (ForteBio, Cat. #18-1071) for 300 s. After a baseline measurement in Sample Diluent (30 s; FortéBio, Cat. #18-1048), the AR2G biosensors containing immobilized antibodies were loaded for 200 s with His-tagged recombinant human FAPα (R&D Systems, Cat #3715-SE, 100 nM in Sample Diluent) for 200 s. The theoretical molecular mass of His-tagged recombinant human FAPα protein based on the amino acid sequence (86 kDa) was used for calculations. The association (200 s) of a second antibody (5 μg/mL in Sample Diluent) was determined. Sensors were regenerated by exposure to 10 mM glycine pH 2.5 (Riedl-deHaen, Cat. #15527) for 5 s, followed by neutralization in Sample Diluent for 5 s; both steps were repeated twice. Subsequently, the sensors containing immobilized first antibody were used again, starting with the baseline step.
Data were acquired using Data Acquisition Software v9 (ForteBio) and analyzed with Data Analysis HT Software v9 (ForteBio). The Y-axis was aligned to the start of the association step and Savitzky-Golay filtering was applied. […]

[2] = target: T3, cynomolgus monkey DR4 with death domain deletion on ExpiCHO-S cells (cynomolgus monkey (Macaca fascicularis)); test: flow cytometry, ExpiCHO-S cells expressing cynomolgus monkey DR4, n = 2
T3 construct: also called cynomolgus DR4
T3 chain: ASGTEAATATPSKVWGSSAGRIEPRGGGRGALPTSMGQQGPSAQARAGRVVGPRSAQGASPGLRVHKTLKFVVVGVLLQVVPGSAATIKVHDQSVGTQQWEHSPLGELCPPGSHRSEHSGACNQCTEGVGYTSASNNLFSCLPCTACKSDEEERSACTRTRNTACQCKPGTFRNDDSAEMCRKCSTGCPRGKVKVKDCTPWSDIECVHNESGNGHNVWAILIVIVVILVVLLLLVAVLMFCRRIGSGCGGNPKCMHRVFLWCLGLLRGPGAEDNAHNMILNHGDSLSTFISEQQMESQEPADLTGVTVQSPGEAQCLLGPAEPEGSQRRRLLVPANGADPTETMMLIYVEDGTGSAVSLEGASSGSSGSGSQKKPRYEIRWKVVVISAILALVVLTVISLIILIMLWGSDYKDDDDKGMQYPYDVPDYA
Method: Binding of BisG1-FAPα-FERL/DR4-FERR, BisG1-DR4-FEAL/b12-FEAR and IgG1-DR4-FERR to DR4 of various species commonly used for nonclinical toxicology studies was assessed by flow cytometry using ExpiCHO-S cells transiently expressing DR4 from different animal species. In contrast to other species, rodents only express one DR which has highest homology with human DR5. Therefore, ExpiCHO-S cells transiently expressing rat and mouse DR protein were used instead. All DR constructs lack the intracellular DD to avoid apoptosis of transfected cells upon DR(4) activation. IgG1-b12 was used as negative control.

T1 sequence (chain, as listed by the source limits assumed): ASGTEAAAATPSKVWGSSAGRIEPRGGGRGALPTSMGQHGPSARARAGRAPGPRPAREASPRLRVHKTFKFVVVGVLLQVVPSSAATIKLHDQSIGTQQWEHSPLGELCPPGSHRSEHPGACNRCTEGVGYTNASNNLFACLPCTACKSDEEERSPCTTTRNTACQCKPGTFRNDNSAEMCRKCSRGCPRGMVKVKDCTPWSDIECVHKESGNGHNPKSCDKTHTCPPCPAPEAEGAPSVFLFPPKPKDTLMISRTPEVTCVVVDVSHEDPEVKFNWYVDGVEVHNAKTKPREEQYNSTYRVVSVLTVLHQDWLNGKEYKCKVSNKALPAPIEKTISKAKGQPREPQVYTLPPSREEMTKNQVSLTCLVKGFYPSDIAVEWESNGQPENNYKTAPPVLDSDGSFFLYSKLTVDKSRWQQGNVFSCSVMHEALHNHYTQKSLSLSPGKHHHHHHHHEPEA

B1: BisG1-FAPα-FERL/b12-FERR (bispecific antibody, human IgG1, kappa)
heavy 1: EVQLLESGGGLVQPGGSPRLSCEASGFTFSSYALSWVRQAPGKGLEWVSAISGSGGGRYYADSVKGRFTISRDNSKNTLFLQMNSLRAEDTAVYYCAKEGYSSSGTYWDHWGQGTLVTVSSASTKGPSVFPLAPSSKSTSGGTAALGCLVKDYFPEPVTVSWNSGALTSGVHTFPAVLQSSGLYSLSSVVTVPSSSLGTQTYICNVNHKPSNTKVDKRVEPKSCDKTHTCPPCPAPEFERGPSVFLFPPKPKDTLMISRTPEVTCVVVDVSHEDPEVKFNWYVDGVEVHNAKTKPREEQYNSTYRVVSVLTVLHQDWLNGKEYKCKVSNKALPAPIEKTISKAKGQPREPQVYTLPPSREEMTKNQVSLTCLVKGFYPSDIAVEWESNGQPENNYKTTPPVLDSDGSFLLYSKLTVDKSRWQQGNVFSCSVMHEALHNHYTQKSLSLSPG
light 1: AIQMTQSPSSVSASVGDRVTITCRASQGVSSWLAWYQQKPGRAPKLLIYVASTLQSGVPSRFSGSGSGTDFTLTINSLQPEDFATYYCQQANSFPPTFGQGTRLEMKRTVAAPSVFIFPPSDEQLKSGTASVVCLLNNFYPREAKVQWKVDNALQSGNSQESVTEQDSKDSTYSLSSTLTLSKADYEKHKVYACEVTHQGLSSPVTKSFNRGEC
heavy 2: QVQLVQSGAEVKKPGASVKVSCQASGYRFSNFVIHWVRQAPGQRFEWMGWINPYNGNKEFSAKFQDRVTFTADTSANTAYMELRSLRSADTAVYYCARVGPYSWDDSPQDNYYMDVWGKGTTVIVSSASTKGPSVFPLAPSSKSTSGGTAALGCLVKDYFPEPVTVSWNSGALTSGVHTFPAVLQSSGLYSLSSVVTVPSSSLGTQTYICNVNHKPSNTKVDKRVEPKSCDKTHTCPPCPAPEFERGPSVFLFPPKPKDTLMISRTPEVTCVVVDVSHEDPEVKFNWYVDGVEVHNAKTKPREEQYNSTYRVVSVLTVLHQDWLNGKEYKCKVSNKALPAPIEKTISKAKGQPREPQVYTLPPSREEMTKNQVSLTCLVKGFYPSDIAVEWESNGQPENNYKTTPPVLDSDGSFFLYSRLTVDKSRWQQGNVFSCSVMHEALHNHYTQKSLSLSPG
light 2: EIVLTQSPGTLSLSPGERATFSCRSSHSIRSRRVAWYQHKPGQAPRLVIHGVSNRASGISDRFSGSGSGTDFTLTITRVEPEDFALYYCQVYGASSYTFGQGTKLERKRTVAAPSVFIFPPSDEQLKSGTASVVCLLNNFYPREAKVQWKVDNALQSGNSQESVTEQDSKDSTYSLSSTLTLSKADYEKHKVYACEVTHQGLSSPVTKSFNRGEC
B1: no binding (tested: 800 nM) (human DR4HsECD-FcHisCtag).

B2: IgG1-b12 (antibody)
heavy: not shown
light: B1 light 2
notes: HIV gp120 antibody b12 with wild-type IgG1 Fc; also called IgG-b12
B2: no binding [1].

B3: IgG1-DR4-FERR (antibody, V domains shown)
VH: QVQLQESGPGLVKPSGTLSLTCAVSGGSISSYSWWSWIRQPPGKGLEWIGELYHSGSTNYNPSLKSRVTISVDKSKNQFSLKLRSVTAADTAVYYCVRGVATIDYWGQGTLVTVSS
VL: QSALTQPPSASGSPGQSVTISCTGTSSDVGGYNFVSWYQQDPGKAPKLLIYEVTKRPSGVPDRFSGSKSGNTASLTVSGLQAEDEADYYCSSYAGSNNVMFGGGTKLTVLG
notes: Bivalent monoclonal IgG1 lambda
B3 gave an EC50 [2] of 1.94 µg/mL.

Source: patent US20250002610A1 (Genmab, published 2025)
